The record followed here is paper PMC1807944.

In data set [1] the target is HIV-1 integrase (IN), monomer E (HIV-1) (UniProt P04585). Kind of data set: SAXS titration.
For data set [2], the target named is HIV-1 integrase (HIV-1). As to the kind of experiment: SAXS.

Several values for one entry are separate records, joined by “and”; a condition that tells them apart may be missing. Equal entries are not always repeated.

The substance “AAAAAAAAAAAAAAAAAAAAA (double strand) [ds A21-T21]” registered a Kd in data set [1] of 40 nM.
For the substance HIV-1 integrase (enzyme), in data set [2], the stoichiometry N was 2 and 4.

The term Kd denotes the equilibrium constant for the complex coming apart. As usually defined, the stoichiometry N is the number of molecules, sites or subunits per partner or assembly.
